# Where a chain is given by its changes, count along the chain named.
# T1: human ASGR-1 (wild type) (human, UniProt P07306 1-291)
# T1 construct: also called wt ASGR1; huASGR-1
# T1 sequence: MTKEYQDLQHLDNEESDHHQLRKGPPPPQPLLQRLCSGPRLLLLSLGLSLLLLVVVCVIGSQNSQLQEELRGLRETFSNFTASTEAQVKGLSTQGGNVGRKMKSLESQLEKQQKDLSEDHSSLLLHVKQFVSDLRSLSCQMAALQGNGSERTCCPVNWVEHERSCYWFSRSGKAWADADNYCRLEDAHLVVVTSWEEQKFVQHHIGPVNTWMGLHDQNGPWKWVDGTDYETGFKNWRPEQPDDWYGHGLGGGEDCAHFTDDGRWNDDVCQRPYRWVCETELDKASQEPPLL
# T2: human ASGR-1 mutant construct H203 (human, UniProt P07306 1-291)
# T2 construct: Arg/Glu scanning: non-arginine residues were changed to arginine; Transiently expressed on CHO-S cells
# T2 sequence: T1 sequence with H203R
# B1: 32D6 (antibody, V domains shown)
# VH: QVQLVESGGGVVQPGRSLRLSCAASGFTFSSYGMHWVRQAPGKGLEWVTVIWHDGSNAYYADSVKGRFTISRDNSKNTLYLQMNSLRAEDTAVYYCARENSSSYYFDYWGQGTLVTVSS
# VL: DIQMTQSPSSLSTSVGDRVTITCRASQNIISYLNWYQQKPGKAPKLLMYVASRLQSGVPSRFSGSGSGTDFTLTISSLQAEDFATYYCQQSYSTPYTFGGGTKVAIK
# notes: mAb
# B2: 60E8 (antibody, V domains shown)
# VH: QVQLQESGPGLVRPSATLSLTCTVSGGSISRSSYYWGWIRQPPGKGLEWIGSIYYSGSASYNPSLKSRVTISVDTSENQFSLRLSSVTAADTAVYYCARLDSGWSFDYWGQGTLVTVSS
# VL: DIQMTQSPSSLSASVGDRVTFTCRASQGIRNDLGWFQQKPGKAPKRLIYAASSLQSGVPSRFSGSGSGTEFTLTISSLQPEDFATYYCLQHSSYPLTFGGGTKVEIK
# notes: mAb
# B3: 4B3 (antibody, V domains shown)
# VH: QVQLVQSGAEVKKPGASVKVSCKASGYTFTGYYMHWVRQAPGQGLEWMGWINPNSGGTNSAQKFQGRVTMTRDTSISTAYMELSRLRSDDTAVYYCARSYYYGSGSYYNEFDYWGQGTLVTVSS
# VL: SYELTQPPSVSVSPRQTVSITCSGDKLGDKYACWYQQKPGQSPVLVIYQDRKRPSGIPERFSGSNSGNTATLTISGTQAMDEADYYCQAWDNNTVIFGGGTKLTVL
# notes: mAb
# B4: 60D2 (antibody, V domains shown)
# VH: EVQLVESGGGLVQPGGSLRLSCGASGFTFSSYSMNWVRQAPGKGLEWVSYISESSNIIYYTDSVKGRFTISRDNAMNSLYLQMNSLRDEDTAVYYCARADTPMVLYFYGMDVWGQGTTVTVSS
# VL: B3 VL with R15G, V18A, D25N, C33S, K38R, R51N, A79T, I96V
# notes: mAb
# B5: 59F2 (antibody, V domains shown)
# VH: B4 VH with E53G, M76K
# VL: B3 VL with R15G, V18A, C33S, K38R, R51N, I96V
# notes: mAb
# B6: 65E9 (antibody, V domains shown)
# VH: not shown
# VL: B3 VL with R15G, V18A, D29N, A32D, C33Y, N93S, I96V
# notes: mAb
# B7: 10G6 (antibody, V domains shown)
# VH: QVQLVQSGAEVKKPGASVKVSCKASGYTFTAYHMHWVRQAPGQGLEWMGWINPNNNGTNYAQKFQGRVTMTRDTSISTAYMELSRLRSDDTAVYYCGRDVTSSFDYWGQGTLVTVSS
# VL: DIQMTQSPSSVSASVGDRVTITCRASQGISKWLAWYQQKPGKAPKILIYAAYSLQSGVPARFSGSGSGTDFTLTIRSLQPEDFATYYCQQANSFPFTFGPGTKVDIK
# notes: mAb
# B8: 53F7 (antibody, V domains shown)
# VH: B7 VH with A31G, S84N, R87T, G97A, V100G
# VL: B7 VL with T5S, K31R, K45N, I46L, Y52S, A60S, R76S, T85I
# notes: mAb
# B9: 29E2 (antibody, V domains shown)
# VH: QVQLVESGGGVVQPGRSLRLSCAASGFTFSNCVMHWVRQAPGKGLEWVAVIWYDGSNKYYADSVKGRITISRDNSKNTLYLQMNSLRAEDTAVYYCAREEYSSGWYDYGMDVWGQGTTVTVSS
# VL: DIQMTQSPSSLSASVGDRVTITCRASQAIRNDLGWYQQRPGKAPKRLIYAASSLQSGVPSRFSGSGSGTEFILTISSLQPEDFATYYCLQHYNYPRSFGQGTKLEIK
# notes: mAb
# B10: 45B4 (antibody, V domains shown)
# VH: B9 VH with N31D, I68F, E100R, W105L
# VL: B2 VL with N31D, F36Y, S92Y, L96R, G100Q
# notes: mAb
# B11: 50G9 (antibody, V domains shown)
# VH: QVQLVESGGGVVQPGRSLRLSCAASGFIFSSYGMHWVRQAPGKGLEWVAVISQDGIIRYYADSVKGRFTISRDNSKNTLYLQMNSLRAEDTAVYYCARDVKQWLVRTYGMDVWGQGTTVTVSS
# VL: SYELTQPPSVSVSPGQTASITCSGDKLGDKYACWYQQKPGQSPVLVIYQDSKRPSGIPERFSGSNSGNTATLTISGTQARDEAEYYCQARNSRRGVFGGGTRLTVL
# notes: mAb
# B12: 6G6 (antibody, V domains shown)
# VH: QVQLVQSGAEVRKPGASVKVSCKASGYTFTNYDINWVRQATGQGPEWMGWMHPNSGNTGYAKKFQGRVTMTRNTSISAAYMVLSSLRSEDTAVYYCALSSGWYYFDYWGQGTLVTVSS
# VL: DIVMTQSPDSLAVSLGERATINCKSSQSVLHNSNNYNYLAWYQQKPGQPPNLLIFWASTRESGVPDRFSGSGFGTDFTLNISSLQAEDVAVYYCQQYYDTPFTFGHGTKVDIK
# notes: mAb
# Biological target: T1, human ASGR-1 (wild type)
# Test: FACS, transfected CHO-S cells, mAb 5 ug/ml
# Experimental: (§1) The ability of human ASGR-1-specific, ligand competing antibodies to bind to the mutant hASGR-1 proteins was assessed by FACS as described above.
# (§2) Antibodies were tested for binding to the individual mutant and wild type ASGR-1 constructs using normalized antibody concentrations (5 ug/ml). CHO—S cells transiently expressing the appropriate mutated or non-mutated antigen of interest were mixed with antibody sample or controls, incubated for 1 hour at 4° C., and then washed twice. Cells with bound antibody were then incubated with Alexa Fluor® 647 IgG Fc fragment-specific detection antibody and 7-AAD viability stain for 15 minutes at 4° C., washed once and resuspended in FACS buffer. Samples were analyzed using a BD Accuri™ Flow Cytometer and an Intellicyt HyperCyt Autosampler. As a negative control, supernatants and controls were also screened against CHO—S cells transfected with empty parental vector (referred to as mock). […] Because mutant hASGR-1 expression levels varied relative to each other, sample binding data for each construct was normalized for expression by dividing the binding data from an antibody not affected by the mutations (e.g., 65C12) by the binding values of each test antibody on a given mutant construct. Also, because the antibody binding affinities varied amongst the samples, the expression corrected data (above) was further normalized by comparing test antibody binding on each mutant construct to wild type hASGR-1. Identification of specific mutations that affected test antibody binding was performed by an interquartile range (IQR) analysis to determine statistical outliers. A mutation was identified as a “hit” if the calculated values were >3× the IQR (above the 3rd quartile/upper fence) for a given mutant construct. Although IQR analysis was used here to determine signifance and identify hits, one skilled in the art will recognize that a number of methods could be employed in order to normalize the data (eg. using epitope-tagged constructs or other ASGR-1-binding antibodies directed against non-CBD epitopes).
row,FACS Binding Geomean,Binder
1,36100,B1
2,38700,B2
3,35600,B3
4,29600,B4
5,27900,B5
6,29600,B6
7,43100,B7
8,43500,B8
9,25800,B9
10,30400,B10
11,37300,B11
12,47600,B12

# Biological target: T2, human ASGR-1 mutant construct H203
# Test: FACS, transfected CHO-S cells, mAb 5 ug/ml
# Experimental: as §1, §2
row,FACS Binding Geomean,Binder
1,13500,B1
2,1520,B2
3,1700,B3
4,1370,B4
5,1350,B5
6,1470,B6
7,18200,B7
8,18100,B8
9,15100,B9
10,14000,B10
11,1510,B11
12,20500,B12

# Biological target: T1, human ASGR-1 (wild type)
# Test: FACS ratio: 65C12 geomean / this mAb geomean
# Experimental: (§3) Mutant hASGR-1 variants were constructed such that non-arginine residues were changed to arginine and where wild type arginine residues were mutated to glutamic acid. Each mutant hASGR-1 sequence was then cloned into a mammalian expression vector and used to transiently transfect CHOs cells. The ability of human ASGR-1-specific, ligand competing antibodies to bind to the mutant hASGR-1 proteins was assessed by FACS as described above.
# (§4) Antibodies were tested for binding to the individual mutant and wild type ASGR-1 constructs using normalized antibody concentrations (5 ug/ml). CHO—S cells transiently expressing the appropriate mutated or non-mutated antigen of interest were mixed with antibody sample or controls, incubated for 1 hour at 4° C., and then washed twice. Cells with bound antibody were then incubated with Alexa Fluor® 647 IgG Fc fragment-specific detection antibody and 7-AAD viability stain for 15 minutes at 4° C., washed once and resuspended in FACS buffer. Samples were analyzed using a BD Accuri™ Flow Cytometer and an Intellicyt HyperCyt Autosampler. As a negative control, supernatants and controls were also screened against CHO—S cells transfected with empty parental vector (referred to as mock). […] Because mutant hASGR-1 expression levels varied relative to each other, sample binding data for each construct was normalized for expression by dividing the binding data from an antibody not affected by the mutations (e.g., 65C12) by the binding values of each test antibody on a given mutant construct. Also, because the antibody binding affinities varied amongst the samples, the expression corrected data (above) was further normalized by comparing test antibody binding on each mutant construct to wild type hASGR-1. Identification of specific mutations that affected test antibody binding was performed by an interquartile range (IQR) analysis to determine statistical outliers. A mutation was identified as a “hit” if the calculated values were >3× the IQR (above the 3rd quartile/upper fence) for a given mutant construct.
row,Expression Normalization to mAb 65C12,Binder
1,1.55,B1
2,1.45,B2
3,1.58,B3
4,1.89,B4
5,2.01,B5
6,1.89,B6
7,1.3,B7
8,1.29,B8
9,2.18,B9
10,1.85,B10
11,1.5,B11
12,1.18,B12

# Biological target: T2, human ASGR-1 mutant construct H203
# Test: FACS ratio: 65C12 geomean / this mAb geomean
# Experimental: as §3, §4
row,Expression Normalization to mAb 65C12,Binder
1,1.91,B1
2,17,B2
3,15.2,B3
4,18.8,B4
5,19.1,B5
6,17.5,B6
7,1.41,B7
8,1.42,B8
9,1.71,B9
10,1.84,B10
11,17.1,B11
12,1.26,B12

# Biological target: T2, human ASGR-1 mutant construct H203
# Test: FACS ratio: H203 normalized value / wt normalized value
# Experimental: as §1, §2
row,Normalization to wt ASGR1 Binding,Binder
1,1.23,B1
2,11.7,B2
3,9.63,B3
4,9.95,B4
5,9.53,B5
6,9.25,B6
7,1.09,B7
8,1.1,B8
9,0.786,B9
10,0.995,B10
11,11.4,B11
12,1.07,B12

# Source: patent publication US20190248902A1 (published 2019)
